In the supplement of paper PMC9732359:
± gives the uncertainty stated by the source.

Experiment: protein stability index of a GFP-peptide fusion (yeast GPS) (PSI 1-4); higher = more stable; sorted into four equal gates, so the index is relative within each strain
Method in brief: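 Yeast carrying a pooled library were grown to mid-log phase in leucine-free medium. Each library plasmid expresses Cherry and has a tiled 17-residue yeast protein peptide fused downstream of GFP. Cells were sorted into four equal gates by GFP/Cherry ratio, and plasmids from each gate were PCR-amplified, Illumina-sequenced and assigned to strains by barcode. Summing, across gates, the read frequency times the gate number gave each peptide's protein stability index.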

Sequence	protein stability index (doa10∆)	protein stability index (pdr5∆)	protein stability index (ubr1∆)	protein stability index (san1∆)
MANIPERIINVGVIGPL [SNU114]	2.18 ± 0.28	2.79 ± 0.16	3.07 ± 0.077	
LYQLFKTCIQGINSPLS [YJL039C/NUP192]	1.83 ± 0.12	2.05 ± 0.087	2.04 ± 0.11	1.64 ± 0.16
AKDKEIYNKMIGVLNNS [RPN13]	2.6 ± 0.084	2.94 ± 0.1	2.93 ± 0.065	2.72 ± 0.053
NSSEQESDYEPNNETSV [SIR3]	3.11 ± 0.084	3.27 ± 0.085	2.84 ± 0.092	3.02 ± 0.063
KSFISKLLGIGDIESLF [SRP54]	1.56 ± 0.061	1.82 ± 0.077	2.1 ± 0.12	2.2 ± 0.12
SAAASESDVAKQLASFG [RPL16B]	2.76 ± 0.048	2.83 ± 0.042	2.42 ± 0.027	2.44 ± 0.057
RENLHILNEVFTNPSIV [RRP6]	2.26 ± 0.076	2.93 ± 0.063	2.25 ± 0.053	2.5 ± 0.058
RCIGDSDNVSFEIQGVP [YMR129W/POM152]	3.17 ± 0.1	3.39 ± 0.085	3.35 ± 0.06	3.28 ± 0.059
LVDKRIDMLPMLLGTDL [DIS3]	2.17 ± 0.083	2.54 ± 0.1	2.34 ± 0.059	2.27 ± 0.08
MYCRPAPSDFSENQRQI [GRR1]	3.13 ± 0.085	2.62 ± 0.084	2.66 ± 0.082	3.02 ± 0.078
ANSESGHYQAFIRDELD [UBP6]	3.31 ± 0.28	2.76 ± 0.11	2.66 ± 0.17	
GHTLINNYKDLLAVAIA [RPP0]	1.19 ± 0.17	1.61 ± 0.24	1.18 ± 0.16	1.31 ± 0.17
TPLLENISISTSELGND [BRR2]	2.16 ± 0.058	2.05 ± 0.049	2.03 ± 0.042	2.2 ± 0.07
TTVITVFLEFSLNFIPI [YML103C/NUP188]	1.42 ± 0.038	1.33 ± 0.032	1.58 ± 0.023	1.83 ± 0.064
WRILKEDYAIVTKGGTV [PRP28]	3.47 ± 0.27	3.2 ± 0.29	3.41 ± 0.17	3.26 ± 0.11
VEKLGKKMEARGQSIWV [RPN9]			1.51 ± 0.14	
HSNLEKISNSKLLSLLR [SIR4]	2.4 ± 0.063	2.65 ± 0.052	2.48 ± 0.047	2.5 ± 0.051
EWKSNHKKKRSNAAGAD [SRB8]	1.33 ± 0.13	1.72 ± 0.2	1.83 ± 0.054	1.5 ± 0.17
GIRVQDSVILASSKAVT [PRE1]	2.54 ± 0.065	2.73 ± 0.076	2.38 ± 0.05	2.46 ± 0.068
DDNETENPNFWRQFGNR [GRR1]	3.17 ± 0.076	3.23 ± 0.056	3.21 ± 0.056	3.31 ± 0.06
GLSPKKVGEDIAKATKE [RPL12A]	3.03 ± 0.16	3.22 ± 0.14	2.77 ± 0.24	3.13 ± 0.18
ADSAVNRQTLMFTATMT [PRP28]	2.6 ± 0.056	2.72 ± 0.049	2.65 ± 0.049	2.58 ± 0.046
TNKDIICQIISSTITGD [RPL5]	2.6 ± 0.055	2.13 ± 0.057	2.24 ± 0.055	2.94 ± 0.1
TFRIFHNHDTGCDENDS [YDL088C/ASM4]	2.92 ± 0.1	3.09 ± 0.14	3.11 ± 0.1	3.27 ± 0.1
KFKLLNGLAIRRAAYGV [RPS3]	2 ± 0.046	2.15 ± 0.047	1.86 ± 0.048	1.88 ± 0.062
PELFESLGIAQPKGVIL [RPT6]	2.56 ± 0.052	2.82 ± 0.069	2.54 ± 0.061	2.46 ± 0.092

Sequence	protein stability index (doa10∆)	protein stability index (pdr5∆)	protein stability index (ubr1∆)	protein stability index (san1∆)
ETYVASYVVPRLYLKDQ [ECM29]	2.46 ± 0.1	1.93 ± 0.088	2.32 ± 0.054	1.91 ± 0.24
NDDIEWMLSICVEWRLP [YJR042W/NUP85]	1.64 ± 0.069	1.53 ± 0.036	1.9 ± 0.058	1.83 ± 0.11
LADSLDRCVDPEDPYFN [DIS3]	3.05 ± 0.095	2.64 ± 0.079	3.4 ± 0.059	3.35 ± 0.076
SYVVPRLYLKDQTNHIE [ECM29]	2.62 ± 0.076	1.83 ± 0.046	2.15 ± 0.033	2.83 ± 0.056
HSISEAENMLEELRGQQ [SMC4]	3.27 ± 0.094	2.52 ± 0.18	3.2 ± 0.079	3.35 ± 0.068
FKGLETPLKARQREMAE [YLR018C/POM34]	3.27 ± 0.1	3.29 ± 0.1	3.41 ± 0.069	2.91 ± 0.088
REDIDDPLAKVNVLLQS [BRR2]	2.91 ± 0.12	3.04 ± 0.088	2.96 ± 0.11	3.19 ± 0.092
IYDFPGTPEATKGMITN [NUT2]	2.54 ± 0.11	2.54 ± 0.11	3.3 ± 0.086	2.98 ± 0.15
RDDGKRELLVEGYGLRD [RPO31]	2.4 ± 0.079	2.56 ± 0.072	2.74 ± 0.068	2.72 ± 0.077
EHKPVSPDKIGTFTADY [SSN2]	2.98 ± 0.071	3.15 ± 0.051	3.09 ± 0.048	2.9 ± 0.058
IRYNAKRRNWRRTKMNI [RPL39]	3.23 ± 0.095	3.23 ± 0.093	3.32 ± 0.057	3.07 ± 0.095
MSNDPGNEVSSLYPPPP [MED7]	3.21 ± 0.1	2.92 ± 0.071	3.08 ± 0.062	2.69 ± 0.082
KYYIVSSSKSMINDENY [SRB8]	2.91 ± 0.073	2.76 ± 0.056	2.81 ± 0.04	2.43 ± 0.083
SNASRRKLINYTKKHLS [RPN4]	1.73 ± 0.071	1.27 ± 0.056	1.34 ± 0.042	1.56 ± 0.097
EIITSLSMRFQRETSGM [SRB8]		2.28 ± 0.18	2.47 ± 0.17	
QCYKIYDLVILKSGLPL [YMR129W/POM152]		2.04 ± 0.12	1.29 ± 0.059	2.25 ± 0.14
QFDIQSPLYMDTETFDT [YML103C/NUP188]	3.11 ± 0.093	2.88 ± 0.064	3.28 ± 0.06	3.02 ± 0.063
GDYNNTVYSSEQYIQEL [SMC3]	2.9 ± 0.11	3.2 ± 0.11	3.14 ± 0.042	3.22 ± 0.074
MLLITSGDSGVYTLACR [RPC11]	1.58 ± 0.1	2.45 ± 0.13	2.46 ± 0.088	3 ± 0.093
GFIFTSMILEAISTDKI [RRI2]	1.35 ± 0.082	1.27 ± 0.072	1.51 ± 0.083	1.26 ± 0.13
AKKTSTSVDGKKRSKVR [HTB2]	3.05 ± 0.19	2.98 ± 0.23	3.31 ± 0.075	2.96 ± 0.27
KVFIRESLSLKNIHISK [YML103C/NUP188]	2.09 ± 0.039	2.21 ± 0.045	1.92 ± 0.03	2.01 ± 0.057
ELSKSRALQENGIIMNG [YMR153W/NUP53]	2.63 ± 0.16	2.85 ± 0.13	3.17 ± 0.15	2.64 ± 0.16
FNRDNKVSPAAAAKKAL [RPS26B]	2.4 ± 0.12	2.5 ± 0.21	2.79 ± 0.12	2.61 ± 0.11
IKNLTVQLSPSNPQHII [RGR1]	2.6 ± 0.052	2.74 ± 0.05	2.67 ± 0.049	2.42 ± 0.062
EDISKATHLPKDNVEHL [RPN9]	2.91 ± 0.084	3.13 ± 0.076	3.26 ± 0.061	3.12 ± 0.091
